Source: doi:10.1101/2022.12.08.519103 (bioRxiv, 2022)
Square brackets hold non-standard residues; d marks the D form. Ends that are not written are not given here. pS = N[C@@H](COP(=O)(O)O)C(=O)O

Assays:
Experiment in all cases: Holdup Multiplex
[1] = molecular target: T1, AviTag-His6-MBP-TEVsite-14-3-3ε (human, UniProt P62258 1-255)
T1 sequence (looked up): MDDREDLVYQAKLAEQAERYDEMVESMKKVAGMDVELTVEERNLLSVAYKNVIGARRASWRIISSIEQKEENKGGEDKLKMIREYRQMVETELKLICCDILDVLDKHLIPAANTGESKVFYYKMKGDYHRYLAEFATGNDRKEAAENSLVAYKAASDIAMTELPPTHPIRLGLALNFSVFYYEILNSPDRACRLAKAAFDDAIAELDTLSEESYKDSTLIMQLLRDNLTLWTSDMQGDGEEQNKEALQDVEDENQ

[2] = molecular target: T2, AviTag-His6-MBP-TEVsite-14-3-3σ (human, UniProt P31947 1-248)
T2 sequence (looked up): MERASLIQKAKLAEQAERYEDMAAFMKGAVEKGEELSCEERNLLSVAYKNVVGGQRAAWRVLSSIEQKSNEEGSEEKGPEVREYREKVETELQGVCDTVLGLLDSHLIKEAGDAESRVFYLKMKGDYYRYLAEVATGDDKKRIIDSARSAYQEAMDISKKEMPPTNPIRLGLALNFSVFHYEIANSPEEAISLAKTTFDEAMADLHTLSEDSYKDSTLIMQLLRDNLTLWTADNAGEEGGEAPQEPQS

[3] = molecular target: T3, AviTag-His6-MBP-TEVsite-14-3-3γ (human, UniProt P61981 1-247)
T3 sequence (looked up): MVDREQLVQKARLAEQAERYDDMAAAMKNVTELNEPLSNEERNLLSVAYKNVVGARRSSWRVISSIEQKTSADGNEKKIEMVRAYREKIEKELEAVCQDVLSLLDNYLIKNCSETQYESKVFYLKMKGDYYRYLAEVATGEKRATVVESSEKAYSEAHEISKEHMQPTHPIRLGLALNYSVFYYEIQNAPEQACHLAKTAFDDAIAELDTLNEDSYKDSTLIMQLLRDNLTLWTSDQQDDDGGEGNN

GARPV[pS]VAGS (peptide, UniProt Q9Y4H2 379-388, looked up, also: phosphoserine at 384 (S6 or S10)) [IRS2 pSer384 phosphopeptide]
Kd [1]: ~900 µM

LRRPH[pS]VIGG (peptide, UniProt Q00537 70-79, looked up) [phosphopeptide centered on pSer75 from CDK17]
Kd ratio between γ and σ [2]: 60 fold

QRISQ[pS]APVK (peptide, UniProt P46937 271-280, looked up, also: phosphoserine at 276 (S4 or S6)) [YAP1 pSer276 phosphopeptide]
Kd [3]: 0.7 µM
